# Measurements as given in US20120128663A1.
# Biological target: FcRn (human) (UniProt P55899)
# Assay: Biacore; pH 6.0
koff [s⁻¹],Ka [M⁻¹],Kd [nM],Substance
0.0702,–,–,IgG1/2 N434S/T307E
0.136,–,–,IgG1/2 N434S/R255F
0.121,–,–,IgG1/2 N434S/K288H
0.13,–,–,IgG1/2 N434S/V309I
0.094,2.69e+06,372,IgG1/2 N434S/N286L
–,1.65e+06,605,IgG1/2 N434S/Y436L
0.162,–,–,IgG1/2 N434S/K288Y
0.0988,2.5e+06,400,IgG1/2 N434S/N286R
0.0416,5.92e+06,169,IgG1/2 M428L/N434S
0.142,–,–,IgG1/2 N434S/K338H
0.163,–,–,IgG1/2 N434S/D312Y
0.189,–,–,IgG1/2 N434S/R255H
–,4.64e+06,215,IgG1/2 Q311M/N434S
0.149,–,–,IgG1/2 N434S/N286H
0.173,–,–,IgG1/2 N434S/S426L
0.176,–,–,IgG1/2 N434S/K248Y
0.149,–,–,IgG1/2 N434S/S426M
–,1.46e+06,683,IgG1 Y436V
0.113,–,–,IgG1/2 N434S/Q438N
0.122,–,–,IgG1/2 N434S/N286P
0.118,–,–,IgG1/2 N434S/Y436F
0.164,–,–,IgG1/2 N434S/K288L

koff [s⁻¹],Ka [M⁻¹],Kd [nM],Substance
0.22,–,–,IgG1/2 N434S/S426Y
0.138,–,–,IgG1/2 N434S/V309E
0.0867,2.23e+06,448,IgG1/2 N434S/S426I
–,1.42e+06,706,IgG1 Y436W
0.158,–,–,IgG1/2 N434S/K288F
0.117,–,–,IgG1/2 N434S/M428I
0.107,–,–,IgG1/2 N434S/R255W
0.0818,–,–,IgG1/2 N434S/T307G
0.285,–,–,IgG1/2 N434S/S426F
0.359,–,–,IgG1/2 N434S/V309D
0.111,–,–,IgG1/2 N434S/T307I
0.193,–,–,IgG1/2 N434S/T307R
0.147,–,–,IgG1/2 N434S/K288N
0.104,–,–,IgG1/2 N434S/Q438D
–,532000,1880,IgG1/2 N434S/Y436H
–,2.91e+06,344,IgG1/2 N434S/Y436W
0.139,–,–,IgG1/2 N434S/Q438Y
0.119,–,–,IgG1/2 N434S/Q438W
0.142,–,–,IgG1/2 N434S/D249G
0.153,–,–,IgG1/2 N434S/M428V
0.146,–,–,IgG1/2 N434S/Q438G
0.231,–,–,IgG1/2 N434S/D312R

koff [s⁻¹],Ka [M⁻¹],Kd [nM],Substance
0.98,–,–,IgG1/2 N434S/I253V
–,1.43e+06,699,IgG1/2 Y436I
0.211,–,–,IgG1/2 N434S/T307K
0.221,–,–,IgG1/2 N434S/D312K
0.12,–,–,IgG1/2 N434S/N286F
–,723000,1380,IgG1/2 N434S/Y436K
0.168,–,–,IgG1/2 N434S/V309F
0.213,–,–,IgG1/2 N434S/R255E
0.122,–,–,IgG1/2 N434S/Q438F
0.0981,2.75e+06,363,IgG1/2 N434S/V284E
0.121,–,–,IgG1/2 N434S/H433G
–,1.71e+06,583,IgG1 N434S
0.17,–,–,IgG1/2 N434S/K288I
0.0702,–,–,IgG1/2 N434S/T307P
0.164,–,–,IgG1/2 N434S/Q438H
0.186,–,–,IgG1/2 N434S/R255Q
0.169,–,–,IgG1/2 N434S/R255S
0.117,–,–,IgG1/2 N434S/H285D
–,131000,7660,IgG1/2 WT
0.329,–,–,IgG1/2 N434S/V309R
0.087,–,–,IgG1/2 N434S/T307F
0.106,–,–,IgG1/2 N434S/Q438S

koff [s⁻¹],Ka [M⁻¹],Kd [nM],Substance
0.179,–,–,IgG1/2 N434S/A378G
0.162,–,–,IgG1/2 N434S/K288Q
–,5.77e+06,173,IgG1/2 Q311V/N434S
0.124,–,–,IgG1/2 N434S/N286G
–,3.56e+06,281,IgG1/2 N434S/Y436V
–,5.14e+06,194,IgG1/2 N434S/Y436I
0.275,–,–,IgG1/2 N434S/S426W
0.125,–,–,IgG1/2 N434S/T307N
0.103,–,–,IgG1/2 N434S/N286Y
0.116,–,–,IgG1/2 N434S/V284D
0.107,–,–,IgG1/2 N434S/R255L
0.092,–,–,IgG1/2 N434S/T307V
0.104,–,–,IgG1/2 N434S/Q438I
0.107,–,–,IgG1/2 N434S/T307H
0.0902,–,–,IgG1/2 N434S/A378S
0.0965,–,–,IgG1/2 N434S/R255P
0.272,–,–,IgG1/2 N434S/N286K
0.617,–,–,IgG1/2 N434S/V309K
–,–,1180,IgG1/2_WT
0.0991,2.36e+06,423,IgG1/2 N434S/N286D
–,4.34e+06,231,IgG1/2 Q311L/N434S
0.141,–,–,IgG1/2 N434S/K338R

koff [s⁻¹],Ka [M⁻¹],Kd [nM],Substance
0.0749,–,–,IgG1/2 N434S/T307D
0.148,–,–,IgG1/2 N434S/N286I
0.0832,3.07e+06,326,IgG1/2 N434S/V309W
0.0653,–,–,IgG1/2 N434S/T307M
0.129,–,–,IgG1/2 N434S/V309Y
0.0847,–,–,IgG1/2 N434S/T307Y
0.0943,2.57e+06,390,IgG1/2 N434S/R255I
0.364,–,–,IgG1/2 N434S/V309H
0.16,–,–,IgG1/2 N434S/V309P
0.137,–,–,IgG1/2 N434S/V309L
0.0627,–,–,IgG1/2 N434S/T307W
0.137,–,–,IgG1/2 N434S/T307L
0.818,–,–,IgG1/2 N434S/I253M
0.154,–,–,IgG1/2 N434S/K288W
0.134,–,–,IgG1/2 N434S/S426H
0.227,–,–,IgG1/2 N434S/V309Q
–,3.15e+06,317,IgG1/2 Y436W
0.143,–,–,IgG1/2 N434S/N286V
0.189,–,–,IgG1/2 N434S/R255G
